Patent US20260306676A1, “FLUORESCEIN-LABELED NERVE TARGETING PEPTIDE FORMULATIONS AND RELATED METHODS” (ALUME BIOSCIENCES, INC., priority 2023, published 2026)

Assay: pH-moderated solubility (NaOH titration) of ALM-488 salts
Assay type: physicochemical
Description: A titration experiment was carried out using the ALM-488, HCl salt to determine if a nominal 40-50 mg/mL or higher solubility could be retained as pH is increased by gradual addition of NaOH. […] At solution pH values <4 the peptide remained in solution at concentrations >50 mg/mL. Above pH 4, the peptide precipitated. […] Dilution of the mixture due to base addition decreased the peptide concentration to ~47 mg/mL at pH values >7.
FIG. 8 is an overlay of the titration curves for ALM-488 hydrochloride and the ALM-488 acetate.

CC(C)[C@H](NC(=O)[C@H](Cc1ccc(O)cc1)NCCCCC(=O)[C@H](Cc1ccc(O)cc1)NC(=O)[C@@H]1CCCN1C(=O)[C@H](CCC(=O)O)NC(=O)[C@H](CCC(=O)O)NC(=O)[C@H](Cc1c[nH]c2ccccc12)NC(=O)[C@@H]1CCCN1C(=O)[C@@H](NC(=O)[C@H](CCC(N)=O)NC(=O)c1ccc2c(c1)C(=O)OC21c2ccc(O)cc2Oc2cc(O)ccc21)C(C)C)C(=O)N[C@H](C(=O)N[C@@H](CCCCN)C(=O)N[C@@H](CCCCN)C(=O)N[C@@H](CO)C(=O)N[C@@H](CO)C(=O)NCC(=O)NCC(N)=O)C(C)C [ALM-488 acetate]
initial pH of mixture (before NaOH, acetate mixture ~50 mg/mL): ~ 4
amount of NaOH required to adjust pH to ~7 (compared with hydrochloride salt): lower than that for the hydrochloride salt
dissolution / appearance (initial pH ~4, ~50 mg/mL): did not completely dissolve and formed an opaque orange dispersion
appearance (pH >7, NaOH added): clear solution
